Laboratory results taken from US8012929B2, “Peptides directed for diagnosis and treatment of amyloid-associated diseases” (Tel Aviv University Future Technology Development L.P., priority 2002, dated 2011).
Square brackets hold non-standard residues; d marks the D form. Ends that are not written are not given here. Aib = CC(C)(N)C(=O)O

Legend:
[1] = molecular target: T1, full-length IAPP polypeptide (Homo sapiens, UniProt P10997); test: ThT fluorescence assay of IAPP fibril formation with inhibitory peptides (Tris buffer); format: biochemical; conditions: for inhibition of IAPP aggregation (ThT endpoint): 4 μM IAPP, 40 μM inhibitory peptide, 142 hours of incubation
T1 construct: purchased CalBiochem (La Jolla Calif., USA)
T1 sequence (P10997 34-70 limits assumed): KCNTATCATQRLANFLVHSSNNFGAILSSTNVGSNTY
Description: The ability of amyloidogenic peptides of IAPP, identified according to the teachings of the present invention to inhibit amyloid formation by the full-length polypeptide was tested by the addition of beta-breaker proline residues to the recognition sequence as set forth in the peptide sequence NFLVHPP (SEQ ID NO: 45). The degree of amyloid fibrils formation with and without the inhibitor was assessed using Thioflavin T (ThT) as molecular indicator. The degree of fluorescence of the ThT dye is directly correlated with the amount of amyloid fibrils in the solution [LeVine H 3rd. (1993) Protein Sci. 2:404-410. IAPP solutions ([…] hIAPPin 10 mM Tris buffer pH 7.2), were incubated in the presence or absence of 40[…] of the modified peptide (i.e., NFLVHPP) at room temperature. Fibril formation was determined by a ten fold dilution of the solutions into a solution that contained 3[…] thioflavin T (ThT) in 50 mM sodium phosphate pH 6.0 and determination of fluorescence at 480 nm with excitation at 450 nm using a LS50B spectroflurimeter (Perkin Elmar, Wellesley, Mass.). As a control 10 mM Tris buffer pH 7.2 were diluted into the ThT solution and fluorescence was determined as described.
The degree of amyloid fibril formation with and without the Aib inhibitor was assessed using thioflavin T (ThT) as molecular indicator. The degree of fluorescence of the ThT dye is directly correlated with the amount of amyloid fibrils in the solution [LeVine H 3rd. (1993) Protein Sci. 2:404-410].
[…]IAPP solutions (4 μM peptide in 10 mM Tris buffer pH 7.2), were incubated with or without 40 μM of the various peptide solutions at room temperature. Fibril formation was assessed by a ten fold diluation of the solutions into a solution which contained 3 μM thioflavin T (ThT) in 50 mM sodium phosphate pH 6.0 and determination of fluorescence at 480 nm with excitation at 450 nm using a Perkin Elmar LS50B spectroflurimeter. As a control a 10 mM Tris buffer pH 7.2 was diluted into the ThT solution and fluorescence was determined as described. […]

hIAPP1-37 = molecular target: T2, hIAPP1-37 (Homo sapiens, UniProt P10997); test: Thioflavin T fluorescence assay of hIAPP fibrillization (sodium acetate buffer); format: biochemical; conditions: 4 μM hIAPP1-37, 40 μM inhibitor, 10 mM sodium acetate pH 6.5
T2 construct: purchased CalBiochem (La Jolla Calif., USA)
T2 sequence (P10997 34-70 limits assumed): T1 sequence (P10997 34-70 limits assumed)
Description: Thioflavin T fluorescence assay—hIAPP fibrillization was monitored by Thioflavin T dye binding assay. hIAPP1-37 stock solution was diluted to a final concentration of 4 μM in 10 mM sodium acetate buffer (pH 6.5) with or without inhibitors (40 μM), and a final concentration of HFIP of 1% (vol). Immediately after dilution, sample was centrifuged for 20 minutes in 20,000×g at 4° C. and the supernatant fraction was used for fluorescence measurements. In every measurement ThT was added to a 1 ml sample at a final concentration of 3 μM and measurements were effected by using Perkin-Elmer (excitation 450 nm, 2.5 nm slit; emission 480 nm 10 nm slit). Background was subtracted from all samples.

ThT fluorescence of IAPP in the presence of the inhibitory peptide ([1]; hIAPP in 10 mM Tris pH 7.2 with or without modified peptide, room temperature) | inhibition of IAPP fibrillization (ThT fluorescence at plateau) (hIAPP1-37) | Substance | inhibition of IAPP aggregation (ThT endpoint) [1]
 |  | Aib-Phe-Phe ([Aib]-Phe-Phe) [EG12] | best inhibitor
significant increase in fluorescence |  | NFLVHPP | 
 | effective inhibition | D-Tyr-Aib [EG16] | significant inhibitory effect on IAPP aggregation
